Patent publication US20100092460A1 (Ablynx, published 2010)

T1: hCXCR3 (human, UniProt P49682 1-368)
T1 construct: whole, on cells
T1 sequence (looked up): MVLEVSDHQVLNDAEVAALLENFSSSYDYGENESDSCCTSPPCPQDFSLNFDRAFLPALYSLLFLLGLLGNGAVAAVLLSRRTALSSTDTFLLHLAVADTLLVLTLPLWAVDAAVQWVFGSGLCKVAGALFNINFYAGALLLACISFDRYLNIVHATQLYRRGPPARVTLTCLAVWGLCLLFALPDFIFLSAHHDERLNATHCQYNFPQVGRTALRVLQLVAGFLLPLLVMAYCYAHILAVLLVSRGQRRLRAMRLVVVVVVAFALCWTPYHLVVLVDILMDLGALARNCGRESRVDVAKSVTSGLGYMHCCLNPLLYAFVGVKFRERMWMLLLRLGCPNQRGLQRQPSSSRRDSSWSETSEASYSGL

T2: recombinant human CCL5/RANTES (Mucin stalk Chimera) (human, UniProt P13501 24-91, biotinylated in the ELISA)
T2 construct: also called mucin-CCL5; not shown: mucin stalk of the chimera (R&D 978-RN/CF); origin, limits and order not described
T2 sequence (looked up): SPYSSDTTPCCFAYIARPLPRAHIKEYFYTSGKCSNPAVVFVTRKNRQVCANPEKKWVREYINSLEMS

T3: hCCR1 (human, UniProt P32246 1-355)
T3 construct: whole, on cells
T3 sequence (looked up): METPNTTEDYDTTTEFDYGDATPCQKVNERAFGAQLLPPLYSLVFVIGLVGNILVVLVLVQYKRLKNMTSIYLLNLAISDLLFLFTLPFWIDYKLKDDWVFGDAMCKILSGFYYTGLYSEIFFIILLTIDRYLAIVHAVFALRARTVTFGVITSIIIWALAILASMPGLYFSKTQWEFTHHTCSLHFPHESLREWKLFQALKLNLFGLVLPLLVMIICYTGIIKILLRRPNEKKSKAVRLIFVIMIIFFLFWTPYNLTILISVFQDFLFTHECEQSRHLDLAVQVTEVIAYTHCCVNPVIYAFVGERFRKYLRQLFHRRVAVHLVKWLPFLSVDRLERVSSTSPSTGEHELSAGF

B1: Nanobody 8E3 (VHH)
VHH: EVQLVESGGGLVQAGGSLRLSCAASGGTFSSYRMGWFRQAPGKEREFVTLISRSGGTTDYTDSVKGRFTISRDNAKNTVSLQMNNLKPADTAVYYCAAAGSMGWNHLRDYDYWGQGTQVTVSS
notes: llama VHH against CCL2; purified; not shown: C-terminal c-myc tag and (His)6 tag coded by the vector
B2: Nanobody 11A7 (VHH)
VHH: EVQLVESGGGLVQAGGSLRLSCAASGFTFDDYAIGWFRQAPGKEREGVSIISSSDGSTYYADSVKGRFTISSDNAKNTVYLQMNSLKPEDTAVYYCAAGQGWVIATMTSFRAHREYDYWGQGTQVTVSS
notes: llama VHH against CXCL11; also called 11E10; 11E11; not shown: C-terminal c-myc tag and (His)6 tag coded by the vector
B3: Nanobody 16C1 (VHH)
VHH: EVQLVESGGGLVQAGGSLRLSCAASGRTFSSYVMGWFRQAPGKEREFVAAIRWSGGSTYYADSVKGRFTISRDNAKNTVYLQMNSLKPEDTAVYYCAADLLGDSDYEPSSGFGSWGQGTQVTVSS
notes: llama VHH against CCL2; not shown: C-terminal c-myc tag and (His)6 tag coded by the vector
B4: Nanobody 11G9 (VHH)
VHH: EVQLVESGGGLVQPGGSLRLSCAASGGTLDDYVIGWFRQAPGKEREGVSCISSTDGSTYYADSVKGRFTISRDNAKNTVYLQVNSLKPEDTAVYYCAAGMGVLRQWALSKLSYDYWGQGTQVTVSS
notes: llama VHH against CXCL11; not shown: C-terminal c-myc tag and (His)6 tag coded by the vector
B5: Nanobody 8E10 (VHH)
VHH: EVQLVESGGGLVQAGDSLRLSCAASGRTFSSYRMGWFRQAPGKEREFVAAISRSGASAYYADSVKGRFTCSRDNAKDTVYLQMNKLKPEDTAVYYCAASSRMGVDDPETYGYWGQGTQVTVSS
notes: as for B1
B6: Nanobody 10C8 (VHH)
VHH: EVQLVESGGGLVQAGDSLRLSCATSGRTFTMDGMGWFRQAPGKEREFVATISRSGVGTFYADSVKGRFTISRDNAKNMVYLQMNSLKPEDTALYYCAARPDYTLGTSSYDYDSWGQGTQVTVSS
notes: llama VHH against CCL5; purified; also called 10D8; 10E9; not shown: C-terminal c-myc tag and (His)6 tag coded by the vector
B7: recombinant human CXCL11/I-TAC (ligand, UniProt O14625 22-94, looked up)
chain: FPMFKRGRCLCIGPGVKAVKVADIEKASIMYPSNNCDKIEVIITLKENKGQRCLNPKSKQARLIIKKVERKNF
modifications: biotinylated in the ELISA; 125I label in the radioligand assays
B8: Nanobody 10H3 (VHH)
VHH: EVQLVESGGGLVQAGGSLRLSCAASGRTFSTYVMGWFRQAPGKEREFVAGITSSIGVTRYAGSVQDRFTISKDNAKNTVFLQMNSLKPEDTADYYCAARPDYYISINPVAYPYWGQGTQVTVSS
notes: llama VHH against CCL5; purified; not shown: C-terminal c-myc tag and (His)6 tag coded by the vector
B9: CCL5 (ligand, UniProt P13501 24-91, looked up)
chain: T2 sequence (looked up)
modifications: also: 125I label, position not given here
notes: also called RANTES
B10: Nanobody 12A4 (VHH)
VHH: EVQLVESGGGLVQPGGSLRLSCAASGFTLDDYAIGWFRQAPGKEREGVSCINSNDGNTYYADSVKGRFTISRDNAKSTVYLQMNSLKPDDTAVYYCAAEAMGYCSAYGSFEGYWGQGTQVTVSS
notes: llama VHH against CXCL12; purified; also called 12C1; 12E4; not shown: C-terminal c-myc tag and (His)6 tag coded by the vector
B11: Nanobody 16D5 (VHH)
VHH: EVQLVESGGGLVQAGGSLRLSCAASGFTFDDYAIAWFRQAPGKEREVVSCISSSDGSTYYADSVKGRFTISSDNAKNTVFLQMNSLKPEDTAVYYCAAVSNCPRDSDYIPYLHYWWGQGTQVTVSS
notes: as for B3
B12: Nanobody 17B11 (VHH)
VHH: EVQLVESGGGLVQAGGSLRLSCAASGFNFDDYAIGWFRQAPGKEREGVSCISSSDGSTYSADSVKGRFTISSDNAKNTVYLQMNNLNPEDTAAYYCAAAPPDCTYYPATPIYYWGQGTQVTVSS
notes: as for B8

What was measured:
[1] = biological target: T4, recombinant human CCL2/MCP1 (human, UniProt P13500 24-99, 125I label in the radioligand assays); experiment: inhibition of 125I-CCL2 (59 pM) binding to HA3-CCR2 on HEK293T cells; radioligand preincubated with purified Nanobody
T4 construct: Immunogen and selection antigen was the Mucin stalk Chimera (R&D 979-MC/CF)
T4 sequence (P13500 24-99 limits assumed): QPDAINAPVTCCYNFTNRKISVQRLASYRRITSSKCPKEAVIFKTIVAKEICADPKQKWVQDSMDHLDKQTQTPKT

[2] = biological target: B7; experiment: inhibition of 125I-CXCL11 binding to hCXCR3 (HEK293T cells), 10x diluted periplasm; ELISA grade at the label
[3] = biological target: T4, recombinant human CCL2/MCP1; experiment: inhibition of 125I-CCL2 binding to hCCR2 (HEK293T cells), purified Nanobody and 10x diluted extract
[4] = biological target: B7; experiment: inhibition of 125I-CXCL11 binding to hCXCR3 (HEK293T cells), purified Nanobody
CCL5 [5] = biological target: B9; experiment: inhibition of 125I-CCL5 (56 pM) binding to CCR1 on HEK293T cells; radioligand preincubated with purified Nanobody
hCXCR3 = biological target: T1, hCXCR3; experiment: competition of unlabeled CXCL11 with 125I-CXCL11 on HEK293T cells with hCXCR3
CCL5 [6] = biological target: B9; experiment: inhibition of 125I-CCL5 binding to hCCR1 (HEK293T cells), purified Nanobody
[7] = biological target: T2, recombinant human CCL5/RANTES (Mucin …); experiment: ELISA, periplasmic extract on biotinylated mucin-CCL5 on neutravidin, anti-myc detection
hCCR1 = biological target: T3, hCCR1; experiment: competition of unlabeled CCL5 with 125I-CCL5 on HEK293T cells with hCCR1
[8] = biological target: T5, recombinant human CXCL12/SDF1alpha (human, UniProt P48061-2 22-89, biotinylated in the ELISA; 125I label in the radioligand assays); experiment: cell-based or functional assay
T5 sequence (P48061 22-89 limits assumed): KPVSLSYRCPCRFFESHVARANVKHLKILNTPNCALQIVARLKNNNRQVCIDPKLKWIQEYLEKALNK

[9] = biological target: T5, recombinant human CXCL12/SDF1alpha; experiment: inhibition of 125I-CXCL12 (57 pM) binding to CXCR4 on HEK293T cells; radioligand preincubated with purified Nanobody; total binding data
[10] = biological target: T5, recombinant human CXCL12/SDF1alpha; experiment: inhibition of 125I-CXCL12 (57 pM) binding to CXCR4 on HEK293T cells; specific-binding data
[11] = biological target: T4, recombinant human CCL2/MCP1; experiment: inhibition of 125I-CCL2 binding to hCCR2 (HEK293T cells), 10x diluted extract

Binder: B1
pIC50 [1]: 9

Binder: B2
binding result [2]: binds

Binder: B3
binding result [3]: binds

Binder: B4
binding result [4]: binds

Binder: B5
pIC50 [1]: 8.7

Binder: B6
pIC50 (CCL5 [5]): 9.3

Binder: B7
binding result (hCXCR3): binds

Binder: B8
binding result (CCL5 [6]): binds | binding result [7]: binds

Binder: B9
binding result (hCCR1): binds

Binder: B10
inhibition of CXCL12-induced PLC activation (3H-inositol phosphate accumulation, HEK293T cells with CXCR4 and G-alpha-qi5), pIC50 [8]: 7.2 | pIC50 [9]: 8.7 | pIC50 [10]: 9.1

Binder: B11
binding result [11]: binds

Binder: B12
pIC50 (CCL5 [5]): 9
